Laboratory results from patent US20050032189A1 (published 2005).

Target: T1, Vitronectin receptor, αVβ3 integrin, localized on the HUVEC surface (human, UniProt P06756 31-1048; P05106 27-788)
T1 construct: whole, on cells; Present on bFGF-stimulated HUVEC in the cell adhesion assay; also called integrin αVβ3
Assay: HUVEC adhesion assay on Saxatilin- and Vitronectin-coated plates

T1 sequence (P06756 31-1048, chain 1 of 2): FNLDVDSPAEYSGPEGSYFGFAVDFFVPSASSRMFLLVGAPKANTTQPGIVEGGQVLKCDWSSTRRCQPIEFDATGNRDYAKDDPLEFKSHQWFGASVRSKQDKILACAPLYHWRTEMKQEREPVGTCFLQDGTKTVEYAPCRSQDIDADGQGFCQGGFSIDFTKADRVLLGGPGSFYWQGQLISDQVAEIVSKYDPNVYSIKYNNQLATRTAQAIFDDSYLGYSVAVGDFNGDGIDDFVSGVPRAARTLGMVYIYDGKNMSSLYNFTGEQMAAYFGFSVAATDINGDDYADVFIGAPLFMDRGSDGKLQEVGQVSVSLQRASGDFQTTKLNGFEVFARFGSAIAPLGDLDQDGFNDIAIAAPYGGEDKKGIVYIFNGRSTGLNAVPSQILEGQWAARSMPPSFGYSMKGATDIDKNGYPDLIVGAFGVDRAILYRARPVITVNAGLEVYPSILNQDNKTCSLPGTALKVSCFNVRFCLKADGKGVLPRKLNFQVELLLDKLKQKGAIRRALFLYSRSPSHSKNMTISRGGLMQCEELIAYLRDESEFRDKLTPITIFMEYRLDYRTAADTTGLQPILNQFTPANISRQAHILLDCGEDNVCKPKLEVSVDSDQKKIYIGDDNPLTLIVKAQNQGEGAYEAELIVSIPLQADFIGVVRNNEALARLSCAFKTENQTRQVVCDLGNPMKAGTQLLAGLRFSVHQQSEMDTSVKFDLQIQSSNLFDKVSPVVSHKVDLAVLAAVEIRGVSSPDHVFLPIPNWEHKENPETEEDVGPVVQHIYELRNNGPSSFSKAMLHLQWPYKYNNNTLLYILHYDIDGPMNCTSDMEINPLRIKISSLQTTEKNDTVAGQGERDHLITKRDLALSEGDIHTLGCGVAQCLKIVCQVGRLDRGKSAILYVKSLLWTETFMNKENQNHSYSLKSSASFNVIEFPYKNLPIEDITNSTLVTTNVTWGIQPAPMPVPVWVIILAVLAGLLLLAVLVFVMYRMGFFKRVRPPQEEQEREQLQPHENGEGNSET
T1 sequence (P05106 27-788, chain 2 of 2): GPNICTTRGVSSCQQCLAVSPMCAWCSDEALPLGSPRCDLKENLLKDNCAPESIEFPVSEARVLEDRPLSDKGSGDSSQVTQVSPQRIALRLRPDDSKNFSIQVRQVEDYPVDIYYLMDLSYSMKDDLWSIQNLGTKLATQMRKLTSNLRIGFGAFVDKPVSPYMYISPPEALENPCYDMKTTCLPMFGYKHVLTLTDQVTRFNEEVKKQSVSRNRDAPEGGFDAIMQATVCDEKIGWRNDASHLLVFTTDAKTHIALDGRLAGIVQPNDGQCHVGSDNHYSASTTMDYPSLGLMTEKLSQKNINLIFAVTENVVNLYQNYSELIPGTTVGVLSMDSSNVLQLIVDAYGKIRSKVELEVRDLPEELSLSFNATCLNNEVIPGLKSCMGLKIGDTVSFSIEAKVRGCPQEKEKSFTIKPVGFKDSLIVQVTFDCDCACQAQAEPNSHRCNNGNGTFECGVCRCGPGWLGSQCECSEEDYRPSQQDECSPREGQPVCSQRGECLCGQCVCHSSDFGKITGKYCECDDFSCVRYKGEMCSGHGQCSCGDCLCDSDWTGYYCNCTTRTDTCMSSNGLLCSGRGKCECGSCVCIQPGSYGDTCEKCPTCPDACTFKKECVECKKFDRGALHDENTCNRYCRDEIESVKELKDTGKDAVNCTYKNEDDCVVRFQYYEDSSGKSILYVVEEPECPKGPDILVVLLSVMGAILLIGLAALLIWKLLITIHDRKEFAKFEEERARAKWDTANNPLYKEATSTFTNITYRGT

B1: recombinant Saxatilin (ligand)
chain: EAGEECDCGAPANPCCDAATCKLRPGAQCAEGLCCDQCRFMKEGTICRMARGDDMDDYCNGISAGCPRNPFHA
Does B1 bind?
Result: binds
